{"source": "paper PMC12630689", "about": "(Nature Communications, 2025)", "proteins": {"B1": {"name": "Shaker-IR-I384R (Shaker zH4 K+ channel with fast inactivation removed, Δ6-46, with the I384R mutation) (natural protein, UniProt P08510 1-655, looked up)", "chain": "MAAVALREQQLQRNSLDGYGSLPKLSSQDEEGGAGHGFGGGPQHFEPIPHDHDFCERVVINVSGLRFETQLRTLNQFPDTLLGDPARRLRYFDPLRNEYFFDRSRPSFDAILYYYQSGGRLRRPVNVPLDVFSEEIKFYELGDQAINKFREDEGFIKEEERPLPDNEKQRKVWLLFEYPESSQAARVVAIISVFVILLSIVIFCLETLPEFKHYKVFNTTTNGTKIEEDEVPDITDPFFLIETLCIIWFTFELTVRFLACPNKLNFCRDVMNVIDIIAIIPYFITLATVVAEEEDTLNLPKAPVSPQDKSSNQAMSLAILRVIRLVRVFRIFKLSRHSKGLQRLGRTLKASMRELGLLIFFLFIGVVLFSSAVYFAEAGSENSFFKSIPDAFWWAVVTMTTVGYGDMTPVGVWGKIVGSLCAIAGVLTIALPVPVIVSNFNYFYHRETDQEEMQSQNFNHVTSCPYLPGTLGQHMKKSSLSESSSDMMDLDDGVESTPGLTETHPGRSAVAPFLGAQQQQQQPVASSLSMSIDKQLQHPLQQLTQTQLYQQQQQQQQQQQNGFKQQQQQTQQQLQQQQSHTINASAAAATSGSGSSGLTMRHNNALAVSIETDV"}}, "target": "the molecule itself", "test": "cryo-EM structure", "data": [{"protein": "B1", "values": [{"measurement": "stoichiometry N", "result": 4}]}]}
